Assay results published in patent US20200234789A1, “DESIGNED PROTEINS FOR LIGAND BINDING” (THE REGENTS OF THE UNIVERSITY OF CALIFORNIA, priority 2017, published 2020).

Legend:
[1] = Porphyrin binding to apo-protein, electronic absorption spectra ((CF3)4PZn loading)
Method: (§1) FIGS. 3A-3D. Biophysical characterization of apo- and holo-PS1. FIG. 3A: Electronic absorption and emission spectra of (CF3)4PZn/PS1 holo-protein and (CF3)4PZn in toluene solvent. […] FIG. 3B: Determination of KD by apo-PS1 titration into a buffer solution (100 mM NaCl, 50 mM NaPi, pH 7.5) of (CF3)4PZn with 1% w/v octyl-b-D-glucopyranoside. […] FIG. 3C: Circular dichroism (CD) spectra of apo- and holo-PS1 in 50 mM NaPi, 100 mM NaCl, pH 7.5 as a function of temperature. The transitions appear reversible based on the fact that the spectra are identical after cooling to room temperature. Units are in molar residue ellipticity. […] FIG. 3D: Pump-probe transient absorption spectra of (CF3)4PZn bound in the interior of holo-PS1 at 21° C. and 100° C. […] Inset exemplifies identical transient dynamics (primarily intersystem crossing from S1 to T1) at ΔAbs.=482 nm (scaled). Experimental conditions: solvent=50 mM NaPi, 100 mM NaCl, pH 7.5; excitation wavelength=600±5 nm; magic-angle polarization between pump and probe pulses; pump-probe cross-correlation of ˜250 fs.
FIG. 10. Absorption spectra of (CF3)4PZn/PS1 and (CF3)4PZn/PS2 complexes. […] Experimental conditions: buffer=100 mM NaCl, 50 mM NaPi, pH 7.5.
(§2) A 2-fold excess of the cofactor (CF3)4PZn was added from a 4 mM DMSO stock solution to a 50 mM NaPi, 100 mM NaCl, pH 7.5 buffer with apo-protein (Note that final DMSO concentrations were kept <1%.). Buffer solution of apo-PS1 protein was heated for 5 minutes at 50° C., (CF3)4PZn was then added from the DMSO stock solution, the resultant mixture was vortexed for 5 seconds, and placed back in the heat block at 50° C. for 15 minutes, with vortexing every 3 minutes. The protein/cofactor solution was then spun at 14000×g in a Amicon Ultra-0.5 mL centrifuge filter for 10 min, three times, replacing the buffer to 0.5 mL after each 10 min spin. Finally, the protein solution was spun for 4 min at 12000×g in an Amicon ultrafree-MC GV filter (UFC30GV0S). The holo-PS1 sample was then used for spectroscopic experiments immediately afterward, and diluted to an appropriate concentration if necessary. Binding of (CF3)4PFe was carried out in the same fashion, with the exception that the porphyrin was first dissolved in a stock of DMSO/CHCl3.
Electronic absorption spectra were collected using a Shimadzu UV-1700 UV-Vis spectrophotometer or Cary 5000 spectrophotometer. Steady-state emission spectra were obtained on FLS920P spectrophotometer (Edinburgh Instruments Ltd. Livingston, UK) in 1 cm quartz optical cells. The steady-state emission spectra were corrected using the correction factor generated by the manufacturer.

[2] = Porphyrin binding to apo-protein, electronic absorption spectra ((CF3)4PFe loading)
Method: FIG. 9. Scaled absorption spectra of (CF3)4PM/PS1 complexes, M=Zn^2+, Fe^2+. Loading of (CF3)4PFe into PS1 was ˜40-50%, likely due to the extreme insolubility of the porphyrin. The featured bands at 550-650 nm indicate that (CF3)4PFe is in a homogenous environment in the ferrous state. […] The peak at 423 nm is also indicative of a homogenous binding environment. The absorption spectra were scaled to reflect the relative extinction coefficients of the porphyrins. Buffer=50 mM NaPi, 100 mM NaCl, pH 7.5.
as §2, with “Binding of (CF3)4PFe was carried out in the same fashion, with the exception that the porphyrin was first dissolved in a stock of DMSO/CHCl3.” left out

[3] = Pump-probe transient absorption spectroscopy of bound (CF3)4PZn at 21 and 100° C.; type: physicochemical; conditions: non-natural porphyrin (CF3)4PZn
Method: as §1, with “Experimental conditions: solvent=50 mM NaPi, 100 mM NaCl, pH 7.5; excitation wavelength=600±5 nm; magic-angle polarization between pump and probe pulses; pump-probe cross-correlation of ˜250 fs.” left out
Ultrafast transient absorption spectra were obtained using standard pump-probe methods^9 with a time resolution of approximately 200 fs. Elevated temperature experiments were performed in a custom-made temperature block of anodized aluminum, the temperature of which was controlled by heating rods and monitored by a pair of thermocouples wired to a PID through a solid-state relay. […]

[4] = Size exclusion chromatography (analytical gel filtration), oligomeric state; type: physicochemical; conditions: 100 μM; 50 mM NaPi, 150 mM NaCl, pH 7.0; superdex 75 5/150
Excerpt: FIG. 7A-7B. […] FIG. 7A: Analytical ultracentrifugation. Solutions of apo- and holo-PS1 were centrifuged at speeds ranging from 25,000 r.p.m. to 45,000 r.p.m. and monitored by absorbance at 280 nm. Parameters were globally fit to the data. Single-species fitting agrees well with the data over the entire range and yields the molecular weight of apo-PS1 […] and holo-PS1 12.24±0.91 kD, which agrees well with the 12.86 kD weight of PS1. […] Partial specific volumes were estimated from SEDNTERP^15 for amino acid side chains. FIG. 7B: Analytical gel filtration analysis of apo- and holo-PS1. Detection wavelengths are labeled as the same color as their respective curves. […] The small peak near 1.05 ml elution volume in holo-PS1 is unbound (excess), aggregated porphyrin eluting in the void volume of the superdex 75 5/150 column. Samples were run at concentrations of 100 μM and 37 μM for apo and holo, respectively, in 50 mM NaPi, 150 mM NaCl, pH 7.0 buffer.
Gel filtration profiles were obtained using a Superdex 75 5/150 column on an FPLC system (GE Healthcare AKTA). […] The approximate molecular weight (MWapp) was calculated from a standard curve obtained with the GE LMW standard protein kit. […]

porphyrin loading ([1]; (CF3)4PZn, based on absorbance at 280 nm and 423 nm, 100 mM NaCl, 50 mM NaPi, pH 7.5): 100% | time of complex formation ([1]; adding (CF3)4PZn from organic solution to aqueous PS1): within seconds | binding of (CF3)4PFe (ferrous iron-derivative of the porphyrin) [2]: binds | loading of (CF3)4PFe ([2]; 50 mM NaPi, 100 mM NaCl, pH 7.5): 40-50%
B1: PS1: de novo designed porphyrin-binding four-helix bundle protein; designed sequence SEQ ID NO:1, expressed His-tag-cleaved sequence SEQ ID NO:2 (protein)
chain: SEFEKLRQTGDELVQAFQRLREIFDKGDDDSLEQVLEEIEELIQKHRQLFDNRQEAADTEAAKQGDQWVQLFQRFREAIDKGDKDSLEQLLEELEQALQKIRELAEKKN
stability of the (CF3)4PZn complex over time ([1]; complex with (CF3)4PZn): stable for over a year | temperature up to which the porphyrin is bound [3]: up to 100 °C | degree of dimerization relative to the monomer peak [4]: < 5%
